The nanobody polyreactivity screen of Harvey et al. (2022)

Test: yeast display, Sf9 membrane polyspecificity reagent, FACS + sequencing; frameworks hold sequencing errors
Method in brief: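 Using colony PCR, genes from sorted yeast display clones were amplified, then sequenced on MiSeq at 2 × 250 and filtered by CDR length. The clones had been stained with 10% biotinylated, detergent-solubilized Sf9 membrane reagent for 1 hour at 4 °C and sorted by FACS into low and high (top ~1%) gates on anti-HA and streptavidin fluorescence. Polyreactivity labels come from the gate of origin.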

Sequence | polyreactivity (PSR sort gate)
QVQLVESGGGLVQAGGSLRLICAASGFTFRRYAMGWYRQAPGKEREFVAVITWSGTRTYYADSVKGRFTISRDNAKNTVYLQMNSLKPEDTAVYYCAAYITDVAGRAYDYWGQGTQVTVSS | high polyreactivity
QVQLVESRGGLVQAGGSLRLTCAASGSTFTHYAMGWYRQAPGKERELVAAISSGGGSTYYADSVKGRFTISRDNAKNTVYVQMNSLKPEDTAVYYCAVRSQFRAWRFYYWGQGTQVNVSS | high polyreactivity
QVQLVESGGGLVKAGGSLRLSCAASGLTLPANAMGWYRQAPGKEREFVAAISVGGDTTSYADSVKGRFTISRDNAKNTVYLQMNSLKPEDTAVYYCAADEIHDPRTYRGSAGDYWGQGTQVTVSS | low polyreactivity
QVQLVSGGGLVQAGGSLRLSCAASGRIFGTYAMGWYRQAPGKERELVAAITSGGSTYYADSVKGRFTISRDNAKNTVYLQMNSLKPEDSAVYYCAAEYAIWTHWGRYVTGNYWGQGTQVTVSS | high polyreactivity
QVQLVESGGGLVQAGGSLRLRCAASGIIFEYYAMGLYRQAPGKERELVAAITRGGTTYYADSVKGRFTISRDNAKNTVYLQMNSLKPEDTAVYYCNADSVAYGDEYDFWGQGTQVTVSS | low polyreactivity
QVQLVESGGGLVQAGGSLRLSCSASGSIFPTYAMGWYRKAPGKERELVAAIRSGSNTYYADSVKGRFTISRDNAKNTVYLQMNSLKPEDTAVYYCNKATNLSGGYDSWGQGTQVTVSS | low polyreactivity
QVQLVESGGGLVQAGGSLRLSCAASGSTFGFYAMGWYRQAPGKERELVAAITASGDSTYYADSVKGRFTISRDNAKNTVYLQMNSLKPEDTAVYYCNAVWRYYRKRRAGDFGYWGQGTQVTVSS | low polyreactivity
QVQLVESGGGLVQAGGSLRLSCAASGRTFPRNAMGWYRQAPGKERELVAAISYGGGRTYYADSVKGRFTISRDYAKNTVYLQMNSLKPEDTAVYYCATVRRTDYPLGMDYWGHGTQVTVSS | high polyreactivity
QVQLVESGGGLVQAGGSLRLSCAASGSIFAKYPMGWYRQAPGKERELVAAISSGGSTYYADSVKGRFTISRDNAKNTVYLQMNSLKPEDTAVYYCNKPYGKETRYTFNVWYEYNYWGQGTQVTVSS | low polyreactivity
QVQLVESGGGLVQAGGSLRLSCAASGNIFGVYAMGWYRQAPGKERELVAAIRYSTVSTYYADSVKGRFTISRDNAKNTVYLQMNSLKPEDTAVYYCAAQRRRYLPGHYYYWGQGTQVTVSS | high polyreactivity
QVQLVESGGGFVQAGGSLRLSSAASGSTLPGYAMGSYRQAPGKERELVAGISTRGGNTYYADSVKGRFTISRDNAKNTVYLPMNSLKPEDTAVYYCAAGIPRQAYKFYWGQGTQVTVSS | high polyreactivity
QVHLVESGGGLVQAGGSLRLSCAASGSIFSVYTMGWYRQATGKEREFVPSIDWSAGSTNYADSVKGRFTISRDNAKNTVYFQRNSLKPEDTADDYCARAGSSWDTLYKYYLEHDYWGQGSQVTVSS | low polyreactivity
QVQLVESGGGLVQAGGSLRLSCAASGFIFEYYAMGWYRQAPGKERELVAAISRGGRTNYADSVKGRFTISRDNAKNTVYLQMNSLKPEDTAVYYCARDYTFYRQVRKYGYWGQGTQVTVSS | high polyreactivity
QVQHVESGGGLVQAGGSLLLSCAASGSIFYLYAMGWYRQEPGKERELVATMSSSGGSTYYADSVKGRFTISRDNAKNTVYLQMNSLKPEDTAVYYCNADYIYYGTTYEYWGQGTQVTVSS | low polyreactivity
QVQLVDSGGGLVQAGGSLRLSCAASGRIFRYNTMGWYRQAPGKEREFVAAITQRGVNTYYADSVKGRFTISRDNAKNTVYLQMNRLKPEDTAVYYCNAKRYSYWIYRAYDYWGQGTQVTVSS | low polyreactivity
QVQLVESGGDLVQAGGSLRLSCAASGRTFRYYAMGWYRLAPGKERELVAAISSSGDRTYYADSVKGRFTISRDTAKNTVYLQLNSLKPEDTAVYYCAADRGARGDYCGQGTQVTVSS | high polyreactivity

Sequence | polyreactivity (PSR sort gate)
QVQLVESGGGLVQAGGSLRLSCAASGSIFYYAMGWYRQAPGKERELVATITRRGGRTHYADSVKGRFTLSRDNAKNTVYLQMNSLKPEDTAVYYCAADSYSYRYYYWGQGTQVTVSS | high polyreactivity
QVQLVESGGGLVQAGGSLRLSCAATGGTIYYYAMGWYRQAPGKERELVAAISTSGTSTYYADSVKGRFTISRDNAKNTVYLQMNSLKPEDTAVYYCAARGLRVSSRGYYWGQGTQVTVSS | high polyreactivity
QVQLVESGGGLVQAGGSLRLSCAASGITFADNAMGWYRQAPGKERELVARISRGGRTNYADSVKGRFTISRDNAKNTVYLQMNSLKPEDTAVYYCAADKSSYEYYWGQGTQVTVSS | high polyreactivity
QVQLVESGGGLVQAGGSLRLSCAASGSIFNRYAMGWYRQEPGKERELVAAISRSGGRTYYADSVKGRFTISRDNAKNTVYLQMNSLKPEDTAVYYCAAQSYLHYGYWGQGTQVTVSS | high polyreactivity
QFQLVESGGGLVQAGGSLRLSCAASGLIFAYYAMGWYRQAPGKERELVAAISWTGGSTYYADSVKGRFTISRDNAKNTVYLQMNSLKPEDTAVYYCNTVGKPGFYSWGQGTQVTVSS | high polyreactivity
QVQLVESGGRLVQAVGSLRLRCAPSGNTFPVYAMGWYRQASGKERELVATITSGGSTNYADSVKGRFTISRDNAKNTVYLQMNSLKPEDTAVYYCARRAVYSKRRYDYWGQGTQVTVSS | low polyreactivity
QVQLVDSGGGLVQAGGSLRLSCAASGFIFTQYAMGWYRQAPGQDRELVAAISRSGSSTYYADSVKGRFTISRDNAKNTVSLQMNSLKPEDTAVYYCAAKGSRGTRYWGEDYWGQGTQVTVSS | low polyreactivity
QVQLVESGGGLVQAGGSLRLSCAASGITSEYNTMGWYRQAPGKERELVAGISYRGGSTYYADSVKGRFTISRDNAKNTVYLQMNSLKPEDTAVYYCAKSFKRWRYGNPDYYWGQGTQVTVSS | high polyreactivity
QVQLVESGGGLVQSGGSLRLSCAASGYTFLEYTMGWYRQAPGKERELVAAITSGGSTKYADSVKGRFTISRDNAKNTVYLQMNSLKPEDTAVYYCNARHYSREFDYWGQGTQVTVSS | low polyreactivity
QVQLVASGGGLVQSGGSLRLSCAASGLTFEQYAMGWYRQAPGKERELVAAISRRGTSTYYADSVKARFTISRDYAKNYVYLQMNSRKPEDTAVYYCNAGWWYLGSPFDRDYWGQGTLVTVSS | high polyreactivity
QVQLVESGGGLVQAAGSLRLSSAASGLIFPYYVMGWYRQAPGKERELVAAISVSGGNTYYADSVKGRFTITRDNAKYTVYLQLNSLKPVDTAVYYSAADHYRGSYDYWGQGSQVTVSS | high polyreactivity
QVQLVESGGGVVQAGGSLRLSCAASGRIFGYYAMGWYRQAPGTERELVAVISSGGSTYADSVKGRFTISRDNAKNPVYLQMNSLKPEDTAVYYCAARHYWSSYRTSRSRYDYWGQGTQVTVSS | high polyreactivity
QVHLVESVGGLFQAGGSLRLSCDASGRTFPINAMGWYRQAPGKERELVARISRTSGSTYYADSVKGRFTISRDNAKNTVYLQMNSLNPEDTAVYYCAAVRDKYFRARYGYWGQGTQVTVSS | high polyreactivity
QVQLVESGGGLVQAGGSLRLSCAASGIIFRRYAMGWYRQAPGKERELVAAIRTSGGNTYYADSVKGRFTISRDNAKNTVYLQMNSLKPEDTAVYYCAARRHYTYGNGPSRGGQMDYWGQGTQVTVSS | high polyreactivity
QVQLVESGGGLVQAGGSLRLSCAASGSTFDGNAMGWYRQAPGKERELVAAISSSGGSTYYADSVKGRFTISRDNAKNTVYLQMNSLKPEDTAVYYCAAGGWSTLLSWFYRRYDYWGQGTQVTVSS | high polyreactivity
